The target of the assay is FLAG-transferrin fusion (pREX1235): modified transferrin (mTf) with a FLAG Tag at the N-terminus and the human GPI sequence at the C-terminus, expressed in HEK-293 cells (human) (UniProt P02787). The experiment in a line: FACS of transfected HEK-293 cells with mouse anti-FLAG BioM2 and goat anti-mouse-APC.
Chain of UniProt P02787 (P02787 other isoform, or with tags, fused parts or gaps limits assumed): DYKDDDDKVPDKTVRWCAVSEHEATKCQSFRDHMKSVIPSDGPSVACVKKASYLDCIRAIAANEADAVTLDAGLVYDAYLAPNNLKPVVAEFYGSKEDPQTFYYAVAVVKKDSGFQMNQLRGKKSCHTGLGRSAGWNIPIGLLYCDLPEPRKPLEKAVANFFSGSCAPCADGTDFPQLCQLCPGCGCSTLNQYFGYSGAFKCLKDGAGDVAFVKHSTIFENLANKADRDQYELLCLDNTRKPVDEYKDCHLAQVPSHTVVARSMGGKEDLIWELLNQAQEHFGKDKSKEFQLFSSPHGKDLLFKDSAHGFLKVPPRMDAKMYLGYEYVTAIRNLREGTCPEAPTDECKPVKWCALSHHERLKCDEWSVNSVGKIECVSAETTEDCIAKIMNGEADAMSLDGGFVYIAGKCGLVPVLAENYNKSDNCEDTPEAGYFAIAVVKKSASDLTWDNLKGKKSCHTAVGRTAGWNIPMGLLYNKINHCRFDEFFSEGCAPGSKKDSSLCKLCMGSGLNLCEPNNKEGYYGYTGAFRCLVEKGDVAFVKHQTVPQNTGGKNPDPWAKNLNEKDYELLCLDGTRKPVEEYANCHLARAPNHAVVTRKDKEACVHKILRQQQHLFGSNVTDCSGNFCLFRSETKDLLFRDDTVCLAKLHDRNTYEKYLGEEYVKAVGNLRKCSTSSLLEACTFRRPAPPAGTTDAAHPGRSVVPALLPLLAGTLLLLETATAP

With “mouse anti-FLAG BioM2 (Sigma) (antibody)”, the fold increase in staining relative to mock-transfected cells was 4 fold.

For the origin of these results see US20110086768A1.
